According to patent US20060165680A1:
Each block holds one substance with its values, some of them ahead of it.

Assays:
[1] = molecular target: TAG-72 expressed on the cell surface of Jurkat cells (human); assay: flow cytometry on Jurkat cells expressing cell-surface TAG-72, 1 ug antibody, FITC-conjugated mouse anti-human antibody
[2] = molecular target: TAG-72 positive bovine submaxillary mucin (BSM) (bovine); assay: SPR (BIAcore X), control Fab over immobilised BSM, BSA reference
[3] = molecular target: TAG-72 expressed on the cell surface of Jurkat cells (human); assay: flow cytometry on Jurkat cells expressing cell-surface TAG-72, antibody amount not given, FITC-conjugated mouse anti-human antibody

% Gated, marker M1 [1]: 27.2%
% Gated, marker M2 [1]: 73%
% Total, marker M1 [1]: 12.2%
% Total, marker M2 [1]: 32.7%
Mean, marker All [1]: 41.6
Mean, marker M1 [1]: 5.92
Mean, marker M2 [1]: 54.8
Substance: cCC49 (antibody)

% Gated, marker M1 [3]: 99.7%
% Gated, marker M2 [3]: 0.31%
% Total, marker M1 [3]: 92.1%
% Total, marker M2 [3]: 0.29%
Mean, marker All [3]: 3.54
Mean, marker M1 [3]: 3.49
Mean, marker M2 [3]: 20.5
Substance: human immunoglobulin G (HuIgG) control (antibody)

Continued, substance first:

Substance: Fab derived from human IgG
koff [2]: 0.0138 s⁻¹

Substance: HuCC49 (antibody)
% Gated, marker M1 [1]: 70.8%
% Gated, marker M2 [1]: 29.4%
% Total, marker M1 [1]: 60.6%
% Total, marker M2 [1]: 25.2%
Mean, marker All [1]: 18
Mean, marker M1 [1]: 4.36
Mean, marker M2 [1]: 50.9

Substance: Fab derived from murine CC49
koff [2]: 0.000104 s⁻¹
